Our source for the activity values is patent US20250092426, “CAS ENDONUCLEASES AND RELATED METHODS” (Flagship Pioneering Innovations VII, LLC, published 2025).

This data set has as its target T1, CasEnd-21 (synthetic construct).
T1 chain: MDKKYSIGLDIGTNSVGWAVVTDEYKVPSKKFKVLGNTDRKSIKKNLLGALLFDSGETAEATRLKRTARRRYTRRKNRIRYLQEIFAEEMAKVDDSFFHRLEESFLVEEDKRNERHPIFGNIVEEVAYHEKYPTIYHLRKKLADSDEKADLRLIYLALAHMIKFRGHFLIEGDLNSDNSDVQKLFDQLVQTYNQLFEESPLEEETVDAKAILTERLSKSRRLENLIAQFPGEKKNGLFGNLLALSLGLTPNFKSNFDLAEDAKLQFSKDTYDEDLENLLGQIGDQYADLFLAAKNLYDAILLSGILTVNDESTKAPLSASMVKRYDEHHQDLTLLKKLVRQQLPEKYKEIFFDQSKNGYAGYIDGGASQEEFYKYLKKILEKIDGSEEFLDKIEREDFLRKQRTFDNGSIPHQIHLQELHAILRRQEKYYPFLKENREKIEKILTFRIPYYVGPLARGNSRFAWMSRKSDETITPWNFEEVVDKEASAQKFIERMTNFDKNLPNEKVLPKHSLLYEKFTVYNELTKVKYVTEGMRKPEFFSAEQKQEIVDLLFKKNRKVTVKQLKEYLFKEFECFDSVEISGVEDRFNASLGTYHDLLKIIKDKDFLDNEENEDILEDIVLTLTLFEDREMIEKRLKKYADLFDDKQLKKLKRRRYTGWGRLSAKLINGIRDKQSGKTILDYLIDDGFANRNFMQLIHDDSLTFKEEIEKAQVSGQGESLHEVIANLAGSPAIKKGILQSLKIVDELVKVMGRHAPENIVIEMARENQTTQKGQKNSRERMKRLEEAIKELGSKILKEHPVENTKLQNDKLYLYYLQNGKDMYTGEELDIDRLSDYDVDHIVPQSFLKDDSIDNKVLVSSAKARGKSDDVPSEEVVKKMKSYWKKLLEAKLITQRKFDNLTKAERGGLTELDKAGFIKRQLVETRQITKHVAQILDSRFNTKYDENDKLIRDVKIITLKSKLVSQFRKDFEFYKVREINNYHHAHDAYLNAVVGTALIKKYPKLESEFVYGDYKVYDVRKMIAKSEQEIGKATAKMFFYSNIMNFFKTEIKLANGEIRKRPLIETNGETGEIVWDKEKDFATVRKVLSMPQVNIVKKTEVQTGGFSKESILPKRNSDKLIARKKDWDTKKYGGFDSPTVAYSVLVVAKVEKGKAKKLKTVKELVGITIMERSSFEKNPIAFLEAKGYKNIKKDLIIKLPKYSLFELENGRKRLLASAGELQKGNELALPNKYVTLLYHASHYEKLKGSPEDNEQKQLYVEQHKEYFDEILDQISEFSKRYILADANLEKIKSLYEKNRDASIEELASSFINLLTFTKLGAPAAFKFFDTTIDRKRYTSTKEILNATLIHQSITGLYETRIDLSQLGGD
Description: cell_activity; +++; HEK293T; PAM not stated. An outline of the steps:
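BFP-to-GFP conversion via reverse transcriptase fusion with each Cas endonuclease plus template RNA: 200 ng of each plasmid nucleofected into 250,000 BFP-expressing HEK293T cells (program DS-150). Percent GFP+ cells by flow cytometry at day 4 measured editing.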

B1: BFP-to-GFP template RNA ; BFP reporter protospacer (ssRNA ; dsDNA)
RNA: GCCGAAGCACUGCACGCCGUGUUUUAGAGCUAGAAAUAGCAAGUUAAAAUAAGGCUAGUCCGUUAUCAACUUGAAAAAGUGGCACCGAGUCGGUGCACCCUGACGUACGGCGUGCAGUGCUU
DNA 1: GCCGAAGCACTGCACGCCGT
DNA 2: ACGGCGTGCAGTGCTTCGGC
For B1, the activity is ≥ 100 % of reference.
